Measurements from PMC10115243 (Nature plants, 2023).

Key:
[1] = molecular target: GalS1-ΔSTEM (Populus trichocarpa GalS1 lacking the stem region, residues 73-113) (Populus trichocarpa); assay: SEC-MALS
[2] = molecular target: Populus trichocarpa galactan synthase 1 (GalS1), residues 73-495, tag removed (Populus trichocarpa); assay: SEC-MALS
[3] = molecular target: Populus trichocarpa galactan synthase 1 (GalS1), residues 73-495, tag removed (Populus trichocarpa); assay: SEC-MALS + other: SAXS

stoichiometry N [1] | stoichiometry N [2] | stoichiometry N [3] | Substance
2 | – | – | GalS1-ΔSTEM (Populus trichocarpa GalS1 lacking the stem region, residues 73-113) (domain or fragment)
– | 2 | 2 | Populus trichocarpa galactan synthase 1 (GalS1), residues 73-495, tag removed (enzyme)
